The values below come from article PMC4368098.

The target of data set [1] is DICER (human) (UniProt Q9UPY3).
The target in data set [2] is DICER;ARGONAUTE2 (AGO2) (human;human) (UniProt Q9UPY3+Q9UKV8). In words: competition (fluorogenic siRNA processing). Conditions: 80 nM BoPsi664, 30 nM each enzyme; Assay Buffer with 1 mM free Mg2+ (full composition not in the material), 37 C; indirect read-out by competitive inhibition of fluorogenic siRNA processing, no ….

As for “ARGONAUTE2 (from UniProt Q9UKV8 1-859) (enzyme)”, in data set [1], the K d,app from a Morrison-equation fit of enzymatic activity: DICER (25 nM) titrated with AGO2, fluorogenic DICER substrate BoGD664 (250 nM), 37°C was found to be 2.2 nM; the K d,app from a Morrison-equation fit of enzymatic activity: DICER (25 nM) titrated with AGO2, fluorogenic DICER substrate BoPD664 (250 nM), 37°C stood at 0.54 nM; the molar ratio AGO2:DICER at which enzymatic activity on DICER substrates stops rising (titration of DICER, 25 nM, with AGO2) (molar ratio AGO2:DICER) came out at 1.
With AllStars Negative Control siRNA, the IC50 in data set [2] came to 209 nM.

In general, IC50 refers to the concentration needed to halve the response being measured.
